These binders were tested against T1, human PSMA on cells (LNCaP) (human, UniProt Q04609 1-750) (assay: flow cytometry cell binding assay on LNCaP cells).
T1 construct: whole, on cells; also called LNCaP cells
Description: PSMA×CD3 bispecific antibodies were tested for binding to PSMA positive cell line, LNCAP, to PSMA negative cell line, PC3. To assess the binding capabilities of the PSMA bispecific antibodies, the cell-binding assay was utilized (described previously). Bispecific antibodies were normalized for protein concentration and then incubated with the same number of cells expressing either human or cyno PSMA. The MFI at each concentration was collected by flow cytometry and plotted as a function of concentration. Data was transformed via log 10 and then plotted. Nonlinear regression of binding curves was done to determine EC50s.

T1 sequence (Q04609 whole entry): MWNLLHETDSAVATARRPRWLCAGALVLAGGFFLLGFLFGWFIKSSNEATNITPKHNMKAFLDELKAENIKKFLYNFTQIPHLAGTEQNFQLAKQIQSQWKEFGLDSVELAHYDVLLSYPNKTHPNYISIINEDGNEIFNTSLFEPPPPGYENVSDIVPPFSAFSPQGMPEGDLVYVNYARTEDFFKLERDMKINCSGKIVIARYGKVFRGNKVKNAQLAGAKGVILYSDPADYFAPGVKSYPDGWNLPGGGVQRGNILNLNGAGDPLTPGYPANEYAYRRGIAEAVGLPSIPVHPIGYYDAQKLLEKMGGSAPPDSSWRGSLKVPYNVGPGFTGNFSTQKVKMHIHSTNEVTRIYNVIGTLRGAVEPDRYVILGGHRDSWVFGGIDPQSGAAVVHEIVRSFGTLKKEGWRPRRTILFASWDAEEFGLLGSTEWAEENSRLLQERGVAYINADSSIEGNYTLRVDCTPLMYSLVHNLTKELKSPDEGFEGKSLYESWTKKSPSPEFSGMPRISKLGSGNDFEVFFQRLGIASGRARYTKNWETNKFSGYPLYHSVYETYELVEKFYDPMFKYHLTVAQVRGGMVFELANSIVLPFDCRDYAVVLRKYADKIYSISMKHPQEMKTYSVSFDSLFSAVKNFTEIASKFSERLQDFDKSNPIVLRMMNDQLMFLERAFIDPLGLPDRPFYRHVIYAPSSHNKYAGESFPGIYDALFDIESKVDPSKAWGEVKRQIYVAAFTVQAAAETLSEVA

| binding result | Binder |
| --- | --- |
| binds | PS3B76 (bispecific antibody, human IgG4 S228P, kappa, lambda, F234A L235A, IgG4 PAA; also called PSMB358 x CD3B376) heavy 1: not shown light 1: not shown heavy 2: QVQLQQSGPRLVRPSQTLSLTCAISGDSVFNNNAAWSWIRQSPSRGLEWLGRTYYRSKWLYDYAVSVKSRITVNPDTSRNQFTLQLNSVTPEDTALYYCARGYSSSFDYWGQGTLVTVSSASTKGPSVFPLAPCSRSTSESTAALGCLVKDYFPEPVTVSWNSGALTSGVHTFPAVLQSSGLYSLSSVVTVPSSSLGTKTYTCNVDHKPSNTKVDKRVESKYGPPCPPCPAPEAAGGPSVFLFPPKPKDTLMISRTPEVTCVVVDVSQEDPEVQFNWYVDGVEVHNAKTKPREEQFNSTYRVVSVLTVLHQDWLNGKEYKCKVSNKGLPSSIEKTISKAKGQPREPQVYTLPPSQEEMTKNQVSLTCLVKGFYPSDIAVEWESNGQPENNYKTTPPVLDSDGSFLLYSKLTVDKSRWQEGNVFSCSVMHEALHNHYTQKSLSLSLGK light 2: QSALTQPASVSGSPGQSITISCTGTSSNIGTYKFVSWYQQHPDKAPKVLLYEVSKRPSGVSSRFSGSKSGNTASLTISGLQAEDQADYHCVSYAGSGTLLFGGGTKLTVLGQPKAAPSVTLFPPSSEELQANKATLVCLISDFYPGAVTVAWKADSSPVKAGVETTTPSKQSNNKYAASSYLSLTPEQWKSHRSYSCQVTHEGSTVEKTVAPTECS |
| binds | PS3B79 (bispecific antibody, human IgG4 S228P, kappa, lambda, F234A L235A, IgG4 PAA; also called PSMB360 x CD3B376) heavy 1: not shown light 1: not shown heavy 2: QVQLQQSGPRLVRPSQTLSLTCAISGDSVFNNNAAWSWIRQSPSRGLEWLGRTYYRSKWLYDYAVSVKSRITVNPDTSRNQFTLQLNSVTPEDTALYYCARGYSSSFDYWGQGTLVTVSSASTKGPSVFPLAPCSRSTSESTAALGCLVKDYFPEPVTVSWNSGALTSGVHTFPAVLQSSGLYSLSSVVTVPSSSLGTKTYTCNVDHKPSNTKVDKRVESKYGPPCPPCPAPEAAGGPSVFLFPPKPKDTLMISRTPEVTCVVVDVSQEDPEVQFNWYVDGVEVHNAKTKPREEQFNSTYRVVSVLTVLHQDWLNGKEYKCKVSNKGLPSSIEKTISKAKGQPREPQVYTLPPSQEEMTKNQVSLTCLVKGFYPSDIAVEWESNGQPENNYKTTPPVLDSDGSFLLYSKLTVDKSRWQEGNVFSCSVMHEALHNHYTQKSLSLSLGK light 2: QSALTQPASVSGSPGQSITISCTGTSSNIGTYKFVSWYQQHPDKAPKVLLYEVSKRPSGVSSRFSGSKSGNTASLTISGLQAEDQADYHCVSYAGSGTLLFGGGTKLTVLGQPKAAPSVTLFPPSSEELQANKATLVCLISDFYPGAVTVAWKADSSPVKAGVETTTPSKQSNNKYAASSYLSLTPEQWKSHRSYSCQVTHEGSTVEKTVAPTECS |
| binds | PS3B82 (bispecific antibody, human IgG4 S228P, kappa, lambda, F234A L235A, IgG4 PAA; also called PSMB362 x CD3B376) heavy 1: not shown light 1: not shown heavy 2: QVQLQQSGPRLVRPSQTLSLTCAISGDSVFNNNAAWSWIRQSPSRGLEWLGRTYYRSKWLYDYAVSVKSRITVNPDTSRNQFTLQLNSVTPEDTALYYCARGYSSSFDYWGQGTLVTVSSASTKGPSVFPLAPCSRSTSESTAALGCLVKDYFPEPVTVSWNSGALTSGVHTFPAVLQSSGLYSLSSVVTVPSSSLGTKTYTCNVDHKPSNTKVDKRVESKYGPPCPPCPAPEAAGGPSVFLFPPKPKDTLMISRTPEVTCVVVDVSQEDPEVQFNWYVDGVEVHNAKTKPREEQFNSTYRVVSVLTVLHQDWLNGKEYKCKVSNKGLPSSIEKTISKAKGQPREPQVYTLPPSQEEMTKNQVSLTCLVKGFYPSDIAVEWESNGQPENNYKTTPPVLDSDGSFLLYSKLTVDKSRWQEGNVFSCSVMHEALHNHYTQKSLSLSLGK light 2: QSALTQPASVSGSPGQSITISCTGTSSNIGTYKFVSWYQQHPDKAPKVLLYEVSKRPSGVSSRFSGSKSGNTASLTISGLQAEDQADYHCVSYAGSGTLLFGGGTKLTVLGQPKAAPSVTLFPPSSEELQANKATLVCLISDFYPGAVTVAWKADSSPVKAGVETTTPSKQSNNKYAASSYLSLTPEQWKSHRSYSCQVTHEGSTVEKTVAPTECS |
| binds | PS3B81 (bispecific antibody, human IgG4 S228P, kappa, lambda, F234A L235A, IgG4 PAA; also called PSMB361 x CD3B376) heavy 1: not shown light 1: not shown heavy 2: QVQLQQSGPRLVRPSQTLSLTCAISGDSVFNNNAAWSWIRQSPSRGLEWLGRTYYRSKWLYDYAVSVKSRITVNPDTSRNQFTLQLNSVTPEDTALYYCARGYSSSFDYWGQGTLVTVSSASTKGPSVFPLAPCSRSTSESTAALGCLVKDYFPEPVTVSWNSGALTSGVHTFPAVLQSSGLYSLSSVVTVPSSSLGTKTYTCNVDHKPSNTKVDKRVESKYGPPCPPCPAPEAAGGPSVFLFPPKPKDTLMISRTPEVTCVVVDVSQEDPEVQFNWYVDGVEVHNAKTKPREEQFNSTYRVVSVLTVLHQDWLNGKEYKCKVSNKGLPSSIEKTISKAKGQPREPQVYTLPPSQEEMTKNQVSLTCLVKGFYPSDIAVEWESNGQPENNYKTTPPVLDSDGSFLLYSKLTVDKSRWQEGNVFSCSVMHEALHNHYTQKSLSLSLGK light 2: QSALTQPASVSGSPGQSITISCTGTSSNIGTYKFVSWYQQHPDKAPKVLLYEVSKRPSGVSSRFSGSKSGNTASLTISGLQAEDQADYHCVSYAGSGTLLFGGGTKLTVLGQPKAAPSVTLFPPSSEELQANKATLVCLISDFYPGAVTVAWKADSSPVKAGVETTTPSKQSNNKYAASSYLSLTPEQWKSHRSYSCQVTHEGSTVEKTVAPTECS |
| binds | PS3B80 (bispecific antibody, human IgG4 S228P, kappa, lambda, F234A L235A, IgG4 PAA; also called PSMB347 x CD3B376) heavy 1: not shown light 1: not shown heavy 2: QVQLQQSGPRLVRPSQTLSLTCAISGDSVFNNNAAWSWIRQSPSRGLEWLGRTYYRSKWLYDYAVSVKSRITVNPDTSRNQFTLQLNSVTPEDTALYYCARGYSSSFDYWGQGTLVTVSSASTKGPSVFPLAPCSRSTSESTAALGCLVKDYFPEPVTVSWNSGALTSGVHTFPAVLQSSGLYSLSSVVTVPSSSLGTKTYTCNVDHKPSNTKVDKRVESKYGPPCPPCPAPEAAGGPSVFLFPPKPKDTLMISRTPEVTCVVVDVSQEDPEVQFNWYVDGVEVHNAKTKPREEQFNSTYRVVSVLTVLHQDWLNGKEYKCKVSNKGLPSSIEKTISKAKGQPREPQVYTLPPSQEEMTKNQVSLTCLVKGFYPSDIAVEWESNGQPENNYKTTPPVLDSDGSFLLYSKLTVDKSRWQEGNVFSCSVMHEALHNHYTQKSLSLSLGK light 2: QSALTQPASVSGSPGQSITISCTGTSSNIGTYKFVSWYQQHPDKAPKVLLYEVSKRPSGVSSRFSGSKSGNTASLTISGLQAEDQADYHCVSYAGSGTLLFGGGTKLTVLGQPKAAPSVTLFPPSSEELQANKATLVCLISDFYPGAVTVAWKADSSPVKAGVETTTPSKQSNNKYAASSYLSLTPEQWKSHRSYSCQVTHEGSTVEKTVAPTECS |
| binds | PS3B83 (bispecific antibody, human IgG4 S228P, kappa, lambda, F234A L235A, IgG4 PAA; also called PSMB363 x CD3B376) heavy 1: not shown light 1: not shown heavy 2: QVQLQQSGPRLVRPSQTLSLTCAISGDSVFNNNAAWSWIRQSPSRGLEWLGRTYYRSKWLYDYAVSVKSRITVNPDTSRNQFTLQLNSVTPEDTALYYCARGYSSSFDYWGQGTLVTVSSASTKGPSVFPLAPCSRSTSESTAALGCLVKDYFPEPVTVSWNSGALTSGVHTFPAVLQSSGLYSLSSVVTVPSSSLGTKTYTCNVDHKPSNTKVDKRVESKYGPPCPPCPAPEAAGGPSVFLFPPKPKDTLMISRTPEVTCVVVDVSQEDPEVQFNWYVDGVEVHNAKTKPREEQFNSTYRVVSVLTVLHQDWLNGKEYKCKVSNKGLPSSIEKTISKAKGQPREPQVYTLPPSQEEMTKNQVSLTCLVKGFYPSDIAVEWESNGQPENNYKTTPPVLDSDGSFLLYSKLTVDKSRWQEGNVFSCSVMHEALHNHYTQKSLSLSLGK light 2: QSALTQPASVSGSPGQSITISCTGTSSNIGTYKFVSWYQQHPDKAPKVLLYEVSKRPSGVSSRFSGSKSGNTASLTISGLQAEDQADYHCVSYAGSGTLLFGGGTKLTVLGQPKAAPSVTLFPPSSEELQANKATLVCLISDFYPGAVTVAWKADSSPVKAGVETTTPSKQSNNKYAASSYLSLTPEQWKSHRSYSCQVTHEGSTVEKTVAPTECS |
| binds | PS3B77 (bispecific antibody, human IgG4 S228P, kappa, lambda, F234A L235A, IgG4 PAA; also called PSMB349 x CD3B376) heavy 1: not shown light 1: not shown heavy 2: QVQLQQSGPRLVRPSQTLSLTCAISGDSVFNNNAAWSWIRQSPSRGLEWLGRTYYRSKWLYDYAVSVKSRITVNPDTSRNQFTLQLNSVTPEDTALYYCARGYSSSFDYWGQGTLVTVSSASTKGPSVFPLAPCSRSTSESTAALGCLVKDYFPEPVTVSWNSGALTSGVHTFPAVLQSSGLYSLSSVVTVPSSSLGTKTYTCNVDHKPSNTKVDKRVESKYGPPCPPCPAPEAAGGPSVFLFPPKPKDTLMISRTPEVTCVVVDVSQEDPEVQFNWYVDGVEVHNAKTKPREEQFNSTYRVVSVLTVLHQDWLNGKEYKCKVSNKGLPSSIEKTISKAKGQPREPQVYTLPPSQEEMTKNQVSLTCLVKGFYPSDIAVEWESNGQPENNYKTTPPVLDSDGSFLLYSKLTVDKSRWQEGNVFSCSVMHEALHNHYTQKSLSLSLGK light 2: QSALTQPASVSGSPGQSITISCTGTSSNIGTYKFVSWYQQHPDKAPKVLLYEVSKRPSGVSSRFSGSKSGNTASLTISGLQAEDQADYHCVSYAGSGTLLFGGGTKLTVLGQPKAAPSVTLFPPSSEELQANKATLVCLISDFYPGAVTVAWKADSSPVKAGVETTTPSKQSNNKYAASSYLSLTPEQWKSHRSYSCQVTHEGSTVEKTVAPTECS |
| binds | PS3B78 (bispecific antibody, human IgG4 S228P, kappa, lambda, F234A L235A, IgG4 PAA; also called PSMB359 x CD3B376) heavy 1: not shown light 1: not shown heavy 2: QVQLQQSGPRLVRPSQTLSLTCAISGDSVFNNNAAWSWIRQSPSRGLEWLGRTYYRSKWLYDYAVSVKSRITVNPDTSRNQFTLQLNSVTPEDTALYYCARGYSSSFDYWGQGTLVTVSSASTKGPSVFPLAPCSRSTSESTAALGCLVKDYFPEPVTVSWNSGALTSGVHTFPAVLQSSGLYSLSSVVTVPSSSLGTKTYTCNVDHKPSNTKVDKRVESKYGPPCPPCPAPEAAGGPSVFLFPPKPKDTLMISRTPEVTCVVVDVSQEDPEVQFNWYVDGVEVHNAKTKPREEQFNSTYRVVSVLTVLHQDWLNGKEYKCKVSNKGLPSSIEKTISKAKGQPREPQVYTLPPSQEEMTKNQVSLTCLVKGFYPSDIAVEWESNGQPENNYKTTPPVLDSDGSFLLYSKLTVDKSRWQEGNVFSCSVMHEALHNHYTQKSLSLSLGK light 2: QSALTQPASVSGSPGQSITISCTGTSSNIGTYKFVSWYQQHPDKAPKVLLYEVSKRPSGVSSRFSGSKSGNTASLTISGLQAEDQADYHCVSYAGSGTLLFGGGTKLTVLGQPKAAPSVTLFPPSSEELQANKATLVCLISDFYPGAVTVAWKADSSPVKAGVETTTPSKQSNNKYAASSYLSLTPEQWKSHRSYSCQVTHEGSTVEKTVAPTECS |

From US20230322924A1 (Janssen / Centocor, published 2023)
